From publication doi:10.1101/102822 come the findings set out here.

By Kd is commonly meant the concentration at which binding is half-saturated. High values mean weaker binding, low ones tighter binding. Usually stoichiometry N stands for the number of molecules, sites or subunits per partner or assembly.

Where two headings read alike, the source gives them in different places.

Test [1] deals with Human VEGFR-1 D1-7 (residues 1-750), full-length extracellular domain (human) (UniProt P17948). Kind of test: ITC. On the technique in general: ITC needs no label: the signal is the heat of the interaction.
The target of test [2] is Human VEGFR-1 D1-6 (residues 1-660) (human) (UniProt P17948). Briefly: crystal structure.
Test [3] has as its target Human VEGFR-1 D2-7 (residues 132-750) (human) (UniProt P17948). Kind of test: crystal structure.
Test [4] addresses Human VEGFR-1 D1-3 (residues 1-339) (human) (UniProt P17948). Kind of test: ITC.
In test [5] the target is Human VEGFR-1 D1-7 (residues 1-750), full-length extracellular domain (human) (UniProt P17948). Briefly: SEC-MALS.

The substance Human VEGF-A121 came in with a Kd in test [1] (ligand) of 1.7 nM.

Consider Human VEGF-A121 (ligand), for which the stoichiometry N in test [2], in test [3] and in test [5] was 1 throughout. Moreover, the Kd in test [4] came out at 50 nM; in test [1], 2 nM.
